Experimental data from patent US20250027955A1, “ETHYLENE RECEPTORS AND BINDING DOMAINS WITH MODIFIED BINDING KINETICS FOR ETHYLENE” (Trustees of Dartmouth College, priority 2022, published 2025).
Numbering of substitutions follows the chain as printed. Numbers in names are those of the source. Where two headings read alike, the source gives them in different places.

B1: ETR1^D25A: ETR1 with site-directed mutation of Asp25 to Ala (protein, UniProt P49333 1-738, looked up, variant D25A)
Ethylene receptor 1: MEVCNCIEPQWPADELLMKYQYISAFFIAIAYFSIPLELIYFVKKSAVFPYRWVLVQFGAFIVLCGATHLINLWTFTTHSRTVALVMTTAKVLTAVVSCATALMLVHIIPDLLSVKTRELFLKNKAAELDREMGLIRTQEETGRHVRMLTHEIRSTLDRHTILKTTLVELGRTLALEECALWMPTRTGLELQLSYTLRHQHPVEYTVPIQLPVINQVFGTSRAVKISPNSPVARLRPVSGKYMLGEVVAVRVPLLHLSNFQINDWPELSTKRYALMVLMLPSDSARQWHVHELELVEVVADQVAVALSHAAILEESMRARDLLMEQNVALDLARREAETAIRARNDFLAVMNHEMRTPMHAIIALSSLLQETELTPEQRLMVETILKSSNLLATLMNDVLDLSRLEDGSLQLELGTFNLHTLFREVLNLIKPIAVVKKLPITLNLAPDLPEFVVGDEKRLMQIILNIVGNAVKFSKQGSISVTALVTKSDTRAADFFVVPTGSHFYLRVKVKDSGAGINPQDIPKIFTKFAQTQSLATRSSGGSGLGLAISKRFVNLMEGNIWIESDGLGKGCTAIFDVKLGISERSNESKQSGIPKVPAIPRHSNFTGLKVLVMDENGVSRMVTKGLLVHLGCEVTTVSSNEECLRVVSHEHKVVFMDVCMPGVENYQIALRIHEKFTKQRHQRPLLVALSGNTDKSTKEKCMSFGLDGVLLKPVSLDNIRDVLSDLLEPRVLYEGM
B2: ETR1^K91A: ETR1 with Lys91 replaced by smaller nonpolar sidechain (Ala) (protein, UniProt P49333 1-738, looked up, variant K91A)
Ethylene receptor 1: B1 Ethylene receptor 1 with A25D, K91A
B3: ETR1^D25Q: ETR1 with Asp25 replaced by Gln (protein, UniProt P49333 1-738, looked up, variant D25Q)
Ethylene receptor 1: B1 Ethylene receptor 1 with A25Q
B4: ETR1^D25E: ETR1 with Asp25 replaced by Glu (protein, UniProt P49333 1-738, looked up, variant D25E)
Ethylene receptor 1: B1 Ethylene receptor 1 with A25E

Legend:
[1] = test system: Arabidopsis seedlings, etr1 etr2 ein4 ers1 ers2 background; experiment: Ethylene and 1-MCP response of ETR1^D25N lines lacking all five native ethylene receptors; assay type: in vivo; conditions: ETR1^D25N (etr1 etr2 ein4 ers1 ers2) lines; 1 μM ethylene, 1 μM 1-MCP
[2] = test system: dark-grown Arabidopsis seedlings; experiment: Silver sensitivity assay: effect of silver on ethylene response of dark-grown seedlings; assay type: in vivo
Text: As an initial test for the feasibility of the first hypothesis, Applicant asked if ETR1^D25N could still bind a metal cofactor, and therefore potentially ethylene, in planta. For this purpose, Applicant examined the effects of silver (Ag) on ethylene sensitivity. Silver is thought to substitute for the copper cofactor and, although receptors containing silver can still bind ethylene, they no longer transmit the signal, resulting in ethylene insensitivity.

[3] = Copper binding assay: purified ETR1 transmembrane domain titrated to BCA2-Cu(I) complex, absorbance at 562 nm; conditions: ETR1-TMD expressed and purified from E. coli; Cu(I) stabilized by BCA
Text: Cu(I) was stabilized by the copper chelator BCA, and then titrated with increasing ETR1 protein concentration.
Titration curves were corrected for nonspecific binding observed with chemically and thermally denatured receptor to maximize signal to background levels.

[4] = Saturable [14C]ethylene binding of Arabidopsis seedlings (in planta); conditions: two-week-old green seedlings, 0.31 μL L^−1 [14C]ethylene, 5 μM AVG
Experimental: [^14C]ethylene binding was examined in two-week-old green seedlings grown on media containing 5 μM aminoethoxyvinylglycine (AVG) to inhibit ethylene biosynthesis.
For ethylene binding assays with Arabidopsis seedlings, two-week-old green seedlings were used that had been grown on media containing 5 μl M AVG to inhibit ethylene biosynthesis, with ˜1 g seedlings per sample. The fresh weight of seedlings was determined, and each sample packaged into bags formed from a layer of cheese cloth and stapled at the top. Humidity was maintained in the ethylene binding chambers by use of moistened paper towels. Saturable ethylene binding was determined by analyzing binding to 0.31 μL L^−1 [^14C]ethylene, in the presence or absence of excess [^12C]ethylene.

[5] = test system: Arabidopsis seedlings, etr1 etr2 ein4 background; experiment: Triple-response hypocotyl growth assay of dark-grown seedlings expressing ETR1 transgenes; assay type: in vivo; conditions: for rescue of growth of etr1 etr2 ein4 triple mutant in air: absence of ethylene, hypocotyl and adult shoot growth; for hypocotyl growth response to ethylene: dark-grown seedlings, 0 or 1 μL L^−1 ethylene
Experimental: Functionality of the ETR1 Asp25 mutants was tested by transgenic expression in the etr1 etr2 ein4 Arabidopsis background.
Applicant can thus exploit the triple mutant to assess the ability of the ETR1 transgenes to rescue growth in the absence of ethylene as well as their ability to mediate a response to ethylene. Such an analysis indicates whether the encoded receptors are able to assume the ‘on’ conformation that represses the ethylene response in air, as well as the ‘off’ conformation that occurs in response to ethylene binding.
(§1) All Arabidopsis lines were of the Columbia (Col-0) accession. The etr1-1 and etr1-6 etr2-3 ein4-4 mutant lines have been described. Analysis of the triple response of dark-grown Arabidopsis seedlings to ethylene was performed as described previously. Briefly, seedlings were grown at 22° C. on vertically oriented plates on half-strength Murashige and Skoog basal medium with Gamborg's vitamins (pH 5.75; Sigma), 0.8% (w/v) agar, and 5 μM aminoethoxyvinylglycine (AVG) to inhibit ethylene biosynthesis. The stratified seed was exposed to light for 8 hr and then moved to the dark in the presence or absence of ethylene, with analysis of the seedling growth being performed following 4 days total growth. For short-term kinetic analysis of dark-grown seedlings, time-lapse imaging and growth rate analysis of hypocotyls were carried out as described previously.

[6] = test system: Arabidopsis seedlings, etr1 etr2 ein4 background; experiment: Short-term kinetic analysis of hypocotyl growth response to ethylene; assay type: in vivo; conditions: for short-term hypocotyl growth response to ethylene: 10 μL/L ethylene for 2 hr
Experimental: Based on the differences Applicant uncovered for the long-term ethylene growth responses for the Asp25 mutants, Applicant also analyzed their short-term hypocotyl growth and molecular responses to ethylene. To this end, Applicant performed a short-term kinetic analysis, analyzing the initial hypocotyl growth inhibition in response to 10 μL/L ethylene and the growth recovery following the removal of ethylene after two hours of treatment (FIG. 6A).
as §1

[7] = Saturable [14C]ethylene binding to yeast transgenically expressing ETR1; design: species or system Saccharomyces cerevisiae; conditions: 0.21 μL L^−1 [14C]ethylene; for saturable [14C]ethylene binding: with or without excess [12C]ethylene
Text: Saturable ethylene binding of the ETR1 Asp25 mutants was examined by heterologous expression in yeast, with binding to [^14C]ethylene determined in the presence or absence of excess [^12C]ethylene (FIG. 2C). […] This included the ETR1^D25A mutant, consistent with previous observations, as well as for the ETR1^D25N and ETR1^D25Q mutants (FIG. 2C). Results from the ethylene binding assay are therefore consistent with the negative charge at D25 playing a significant role in mediating high-affinity ethylene binding.
[^14C]ethylene (specific activity=116 mCi/mmol) was obtained from ViTrax Radiochemicals (Placentia, CA) and trapped as the mercuric perchlorate complex as described. For ethylene binding assays in yeast, ETR1 was expressed in the yeast Saccharomyces cerevisiae (strain FY834) using the vector pYcDE-2 and a constitutive ADC1 promoter. The yeast growth media was supplemented with 40 μg L^−1 copper sulfate. Saturable ethylene binding to yeast was determined by analyzing binding of 0.3 g yeast per sample to 0.21 μL L^−1 [^14C]ethylene, in the presence or absence of excess [^12C]ethylene.

[8] = test system: OSR1, ERF1, EXP5 and EXPb1 expression; experiment: Ethylene-dependent gene expression by RT-qPCR; assay type: in vivo, Arabidopsis; conditions: 0 or 1 μL L^−1 ethylene for 2 hr
Experimental: To examine the short-term molecular response, Applicant characterized ethylene-dependent gene expression for the ETR1 Asp25 mutants (FIG. 6B). Expression of OSR1 and ERF1 is induced, whereas the expression of EXP5 and EXPb1 is repressed, in response to ethylene.
RNA isolation and RT-qPCR was performed with three biological replicates and two technical replicates of each.

[9] = test system: Arabidopsis seedlings, etr1 etr2 ein4 background; conditions: previously reported; cited from earlier work
[10] = previously reported, cited from earlier work

Row | Molecule | copper binding [3] | rescue of growth of etr1 etr2 ein4 triple mutant in air [5] | short-term hypocotyl growth response to ethylene [6] | saturable [14C]ethylene binding [7] | molecular response to ethylene (ethylene-dependent gene expression) [8] | hypocotyl growth response to ethylene [5] | further results
1 | CC1=CC1 [1-methylcyclopropene, reference compound] |  |  |  |  |  |  | effect of 1-MCP on ethylene response [1]: blocked
2 | [Ag] [silver, reference compound] |  |  |  |  |  |  | effect of silver on ethylene response of etr1 etr2 ein4 triple mutant ([2]; etr1 etr2 ein4, 10 μL/L ethylene): still responsive to ethylene; effect of silver on ethylene response of wild-type seedlings ([2]; wild-type, 10 μL/L ethylene): blocked
3 | ETR1^wt: wild-type ethylene receptor ETR1 of Arabidopsis | copper binding | rescued growth | rapid growth response to ethylene | Saturable binding | consistent with what is observed in the wild-type control |  | ability of silver to block the ethylene response in transgene lines ([2]; transgene in etr1 etr2 ein4 background, 10 μL/L ethylene): restores the ability of silver to block the ethylene response; ethylene binding in planta versus etr1 etr2 ein4 basal level [4]: significant increase in ethylene binding; growth recovery upon ethylene removal ([6]; after 2 hr of 10 μL/L ethylene, 5-hr recovery in air): growth recovery intermediate between that exhibited by the wild-type and the etr1 etr2 ein4 seedlings
4 | B1 | no copper binding | rescued growth | exhibit ethylene insensitivity | No saturable [^14C]ethylene binding was detected | various levels of hyposensitivity | conferred ethylene insensitivity | ethylene sensitivity of plants (previous studies) [9]: confers dominant ethylene-insensitivity; ethylene binding (previous studies) [10]: eliminate ethylene binding; ethylene binding (previous studies) ([10]; listed as D25A): abolishes ethylene binding
5 | B2 |  |  |  |  |  | a phenotype similar to that of the ETR1^K91M mutant or complete ethylene insensitivity | ethylene sensitivity of plants (previous studies) [9]: confer ethylene insensitivity; ethylene binding (previous studies) [10]: low level of ethylene binding ability; ethylene binding relative to ETR1^wt ([7]; % of wild-type binding): 1%
6 | B3 | minimal residual binding | rescued growth | exhibit ethylene insensitivity | No saturable [^14C]ethylene binding was detected | various levels of hyposensitivity | conferred ethylene insensitivity | 
7 | B4 | minimal residual binding | rescued growth | exhibit ethylene insensitivity | substantially reduced | various levels of hyposensitivity | conferred ethylene insensitivity | 
